This is an account of results in patent US20250186597A1, “TARGETED IMMUNE ACTIVATION WITH IL-18 IMMUNOCYTOKINES” (BRIGHT PEAK THERAPEUTICS AG, priority 2023, published 2025).

Test [1] deals with T1, human neonatal Fc receptor (FcRn) (Homo sapiens, UniProt P55899).
T1 construct: purchased Perkin Elmer AL3095C
Description: Human FcRn binding AlphaLISA at pH 6 (Example 9). The procedure: The interaction of the unmodified and of conjugated anti-PD1 antibodies with the human neonatal Fc receptor (FcRn) at pH 6 was measured using the AlphaLISA® Human FcRn Binding Kit (AL3095C) from Perkin Elmer (Schwerzenbach, Switzerland). […] When reference IgG binds to FcRn, donor and acceptor beads come into proximity enabling the transfer of singlet oxygen that trigger a cascade of energy transfer reactions in the acceptor beads, resulting in a sharp peak of light emission at 615 nm. Addition of a free IgG antibodies into the AlphaLISA® mixture creates a competition for the binding of FcRn to the reference antibody resulting in a loss of signal.
After 90 min at 23° C. in the dark, AlphaLISA® signal was measured on an EnSpire plate reader (Excitation at 680 nm, Emission at 615 nm) from Perkin Elmer (Schwerzenbach, Switzerland).
In general terms: Alpha assays give light when donor and acceptor beads are brought close together.

Test [2] has as its target T2, human Fc gamma receptors III FcγRIIIa/CD16 (Homo sapiens, UniProt P08637).
T2 construct: purchased R&D systems 4325-FC-050
Description: Human FcγR binding ELISA, FcγRIIIa/CD16 (Example 8). As to conditions: ELISA binding affinity. The procedure:
(§1) The interaction of the unmodified and of conjugated antibodies with human Fc gamma receptors I (FcγRI/CD64), with human Fc gamma receptors IIa (FcγRIIa/CD32a), with inhibitory human Fc gamma receptors IIb (FcγRIIb/CD32b), and with human Fc gamma receptors III FcγRIIIa/CD16 were measured by ELISA.
(§2) Briefly, Corning high-binding half-area plates (Fisher Scientific, Reinach, Switzerland) were coated overnight at 4° C. with 25 μl of unmodified and of conjugated anti-PD1 antibodies at 2.5 μg/ml in PBS. […] Plates surfaces were blocked with 25 μl of PBS-0.02% Tween20-1% BSA at 37° C. during 1 h. […] Twenty-five microliters of a 1/500 HRP-anti-His antibody in PBS—0.02% Tween20—0.1% BSA (R&D systems, anti-HIS—HRP Ab, #MAB050H) were added to each well and plates were incubated at Room Temperature during 1 h. […] ELISA signal was then measured at 450 nm on an EnSpire plate reader from Perkin Elmer (Schwerzenbach, Switzerland).
For orientation: ELISA stands for enzyme-linked immunosorbent assay.

Test [3] concerns the target T3, human Fc gamma receptors IIa (FcγRIIa/CD32a) (Homo sapiens, UniProt P12318).
T3 construct: purchased R&D systems 9595-CD-050
T3 sequence (P12318 34-317): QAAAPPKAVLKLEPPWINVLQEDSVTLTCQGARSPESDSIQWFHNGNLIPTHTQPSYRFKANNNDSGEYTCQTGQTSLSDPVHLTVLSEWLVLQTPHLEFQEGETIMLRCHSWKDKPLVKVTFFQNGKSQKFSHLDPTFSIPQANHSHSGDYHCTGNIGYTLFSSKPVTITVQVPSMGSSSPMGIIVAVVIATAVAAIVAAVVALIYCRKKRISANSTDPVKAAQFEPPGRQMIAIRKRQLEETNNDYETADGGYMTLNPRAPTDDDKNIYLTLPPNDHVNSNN
Description: Human FcγR binding ELISA, FcγRIIa/CD32a (Example 8). The following applies: ELISA binding affinity. The procedure: as §1, §2

The target of test [4] is T4, human Fc gamma receptors IIb (FcγRIIb/CD32b) (Homo sapiens, UniProt P31994).
T4 construct: purchased R&D systems AVI1875-050
T4 sequence (P31994 43-310): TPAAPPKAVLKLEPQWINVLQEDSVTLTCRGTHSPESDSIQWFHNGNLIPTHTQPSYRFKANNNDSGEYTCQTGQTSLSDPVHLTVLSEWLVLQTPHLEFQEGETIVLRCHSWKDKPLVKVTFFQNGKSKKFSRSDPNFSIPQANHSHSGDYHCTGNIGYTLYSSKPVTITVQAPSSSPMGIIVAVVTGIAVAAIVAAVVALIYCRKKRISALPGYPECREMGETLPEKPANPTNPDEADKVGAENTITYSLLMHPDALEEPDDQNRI
Put plainly: Human FcγR binding ELISA, FcγRIIb/CD32b (Example 8). The following applies: ELISA binding affinity. The method, then: as §1, §2

The target in test [5] is T5, human Fc gamma receptors I (FcγRI/CD64) (Homo sapiens, UniProt P12314).
T5 construct: purchased R&D systems 1257-FC-050
Description: Human FcγR binding ELISA, FcγRI/CD64 (Example 8). As to conditions: ELISA binding affinity. The method, then: as §1, §2

Another test addresses T6, human PD1 (Homo sapiens, UniProt Q15116).
T6 construct: purchased R&D #8986-PD
Description: Binding kinetics to PD-1 by Bio-Layer Interferometry (Example 6). The following applies: BLI, His-tagged human PD1. The source says:
Based on Bio-Layer Interferometry (BLI), Octet® BLI systems enable real-time, label-free analysis for the determination of kinetics and affinity of a ligands to its receptor. Here anti-human IgG FC Capture (AHC) sensors are loaded with the test items (ICs). Sensors are first dipped into a kinetic buffer for baseline measurement, then into an analyte solution, here human PD1, to allow association and again into a buffer solution where the analyte is allowed to come off the ligand (dissociation). Several concentrations of analyte are run in parallel and enable the calculation of affinity parameters: Ka, Kd, KD.
Typically, first, the sensors are regenerated by 3 cycles of dipping into 10 mM glycine solution at pH=2 for 20 seconds, followed by 20 second kinetics buffer and a final 60 seconds in kinetics buffer to establish the initial signal (baseline). Second, the loading column will contain the ligand, here the unmodified PD-1 antibodies and of IL-18 polypeptide conjugated PD-1 antibody, at a fixed concentration determined in the loading scout experiment (20 ug/mL). Then another wash/baseline step allows non immobilized proteins to be washed away. […] After acquisition, the data is analyzed with Data Analysis Studio software (Sartorius). […] Group fitting is then applied to the data series and kinetics parameters are calculated.

The next test has as its target T7, human PD-L1/B7-H1 (Homo sapiens, UniProt Q9NZQ7).
T7 construct: purchased ACROBiosystems PD1-H82E5-25UG
Put plainly: PD-L1 binding ELISA assay (Example 5). The following applies: biotinylated human PD-L1. The method, then:
The interaction of the unmodified antibodies and corresponding IL-18 immunocytokines with relevant immune cell associated antigen are measured by ELISA assay. For these studies, Corning high-binding half-area plates (Fisher Scientific, Reinach, Switzerland) are coated overnight at 4° C. with 25 μl of unmodified antibodies corresponding IL-18 immunocytokines at […] in PBS. […] Plate surfaces are blocked with 25 μl of PBS-0.02% Tween20-1% BSA at 37° C. during 1 h. […] ELISA signal is then measured at 450 nm on an ENSPIRE® plate reader from Perkin Elmer (Schwerzenbach, Switzerland).

T6 sequence (Q15116 25-288): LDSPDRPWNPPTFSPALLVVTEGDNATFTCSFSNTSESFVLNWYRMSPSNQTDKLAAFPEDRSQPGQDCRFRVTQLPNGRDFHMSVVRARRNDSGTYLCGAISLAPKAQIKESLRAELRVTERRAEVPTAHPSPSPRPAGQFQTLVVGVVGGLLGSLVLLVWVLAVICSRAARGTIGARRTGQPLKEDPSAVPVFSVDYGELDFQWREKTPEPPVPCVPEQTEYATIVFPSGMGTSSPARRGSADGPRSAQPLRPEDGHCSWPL
T5 sequence (P12314 16-374): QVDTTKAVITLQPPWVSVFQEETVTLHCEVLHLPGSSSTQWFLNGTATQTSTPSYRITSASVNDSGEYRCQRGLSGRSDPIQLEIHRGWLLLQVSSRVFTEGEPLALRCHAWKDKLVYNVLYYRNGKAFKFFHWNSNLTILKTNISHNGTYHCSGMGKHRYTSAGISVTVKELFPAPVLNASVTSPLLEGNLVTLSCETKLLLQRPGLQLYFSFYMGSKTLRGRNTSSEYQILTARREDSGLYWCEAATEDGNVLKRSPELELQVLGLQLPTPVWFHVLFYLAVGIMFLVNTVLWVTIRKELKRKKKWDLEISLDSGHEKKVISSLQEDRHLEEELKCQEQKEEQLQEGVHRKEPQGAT
T7 sequence (Q9NZQ7 19-290): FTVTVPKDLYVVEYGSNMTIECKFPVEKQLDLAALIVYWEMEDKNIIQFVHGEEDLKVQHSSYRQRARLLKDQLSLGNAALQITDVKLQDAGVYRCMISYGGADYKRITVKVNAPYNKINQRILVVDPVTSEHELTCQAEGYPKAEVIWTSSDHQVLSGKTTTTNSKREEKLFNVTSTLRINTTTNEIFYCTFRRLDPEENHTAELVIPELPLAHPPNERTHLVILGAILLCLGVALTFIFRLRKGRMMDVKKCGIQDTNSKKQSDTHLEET
T1 sequence (P55899 24-297 limits assumed): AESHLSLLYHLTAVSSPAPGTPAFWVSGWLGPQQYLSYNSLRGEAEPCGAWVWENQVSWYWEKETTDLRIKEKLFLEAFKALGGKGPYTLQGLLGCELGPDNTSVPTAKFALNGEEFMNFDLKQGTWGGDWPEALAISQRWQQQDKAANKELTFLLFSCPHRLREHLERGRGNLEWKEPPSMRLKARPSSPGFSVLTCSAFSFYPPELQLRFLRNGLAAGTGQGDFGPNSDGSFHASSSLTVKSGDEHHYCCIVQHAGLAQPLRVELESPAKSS
T1 sequence (P61769 21-119 partner): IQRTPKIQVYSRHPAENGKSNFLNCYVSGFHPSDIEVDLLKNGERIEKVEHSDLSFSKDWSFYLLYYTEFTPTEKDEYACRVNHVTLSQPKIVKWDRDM
T2 sequence (P08637 17-254): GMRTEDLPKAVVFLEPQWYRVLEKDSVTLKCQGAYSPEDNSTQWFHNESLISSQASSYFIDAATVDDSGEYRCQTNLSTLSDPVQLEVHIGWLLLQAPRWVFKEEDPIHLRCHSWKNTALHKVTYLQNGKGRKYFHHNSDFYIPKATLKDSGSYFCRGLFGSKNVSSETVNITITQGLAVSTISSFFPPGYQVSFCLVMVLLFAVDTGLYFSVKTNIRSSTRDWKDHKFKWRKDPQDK

Usually Kd stands for the equilibrium constant for the complex coming apart. A high value points to weaker binding. “LZM-009: anti-PD-1 antibody, VH SEQ ID NO: 376, VL SEQ ID NO: 377 [reference compound]”: the Kd is 6 nM in test [1]; 1710 nM in test [2]; 1350 nM in test [3]; 2630 nM in test [4]; 0.315 nM in test [5]; above 100 nM with human PD-L1/B7-H1. In the test with human PD1, the ka was 342000 M⁻¹ s⁻¹. Moreover, the kd with human PD1 worked out at 0.0077 s⁻¹.
